Results: paper PMC9890227

Key:
Assay in all cases: EMSA
MutLgamma (MLH1-MLH3) = MutLgamma (MLH1-MLH3) (Homo sapiens, UniProt P40692;Q9UHC1 1-756;1-1453)
MutLbeta (MLH1-PMS1) = MutLbeta (MLH1-PMS1) (Homo sapiens, UniProt P40692;P54277 1-756;1-932)
MutSbeta (MSH2-MSH3) = MutSbeta (MSH2-MSH3) (Homo sapiens, UniProt P43246;P20585 1-934;1-1137)

Measured: binding result

Sequence of MutLbeta (MLH1-PMS1) (P40692 whole entry, chain 1 of 2): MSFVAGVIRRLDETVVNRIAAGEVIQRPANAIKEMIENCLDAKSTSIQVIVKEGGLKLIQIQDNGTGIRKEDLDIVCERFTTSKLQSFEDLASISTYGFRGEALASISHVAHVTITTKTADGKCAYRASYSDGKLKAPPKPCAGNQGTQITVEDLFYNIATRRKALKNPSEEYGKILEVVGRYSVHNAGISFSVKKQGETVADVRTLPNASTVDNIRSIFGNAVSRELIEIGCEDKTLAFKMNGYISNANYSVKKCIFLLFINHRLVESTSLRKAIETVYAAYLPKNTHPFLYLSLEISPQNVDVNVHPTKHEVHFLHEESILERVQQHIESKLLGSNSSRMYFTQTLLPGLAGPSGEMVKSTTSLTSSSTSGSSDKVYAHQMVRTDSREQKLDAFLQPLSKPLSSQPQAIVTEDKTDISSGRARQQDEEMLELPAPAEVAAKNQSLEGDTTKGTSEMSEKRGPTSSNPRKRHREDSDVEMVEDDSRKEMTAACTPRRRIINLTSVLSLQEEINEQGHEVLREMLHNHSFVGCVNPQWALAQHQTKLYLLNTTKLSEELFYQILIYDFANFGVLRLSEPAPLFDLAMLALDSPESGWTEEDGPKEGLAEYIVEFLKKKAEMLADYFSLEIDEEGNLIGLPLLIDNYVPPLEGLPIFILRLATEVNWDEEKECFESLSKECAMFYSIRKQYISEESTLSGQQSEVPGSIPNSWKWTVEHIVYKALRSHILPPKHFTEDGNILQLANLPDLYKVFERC
Sequence of MutLbeta (MLH1-PMS1) (P54277 whole entry, chain 2 of 2): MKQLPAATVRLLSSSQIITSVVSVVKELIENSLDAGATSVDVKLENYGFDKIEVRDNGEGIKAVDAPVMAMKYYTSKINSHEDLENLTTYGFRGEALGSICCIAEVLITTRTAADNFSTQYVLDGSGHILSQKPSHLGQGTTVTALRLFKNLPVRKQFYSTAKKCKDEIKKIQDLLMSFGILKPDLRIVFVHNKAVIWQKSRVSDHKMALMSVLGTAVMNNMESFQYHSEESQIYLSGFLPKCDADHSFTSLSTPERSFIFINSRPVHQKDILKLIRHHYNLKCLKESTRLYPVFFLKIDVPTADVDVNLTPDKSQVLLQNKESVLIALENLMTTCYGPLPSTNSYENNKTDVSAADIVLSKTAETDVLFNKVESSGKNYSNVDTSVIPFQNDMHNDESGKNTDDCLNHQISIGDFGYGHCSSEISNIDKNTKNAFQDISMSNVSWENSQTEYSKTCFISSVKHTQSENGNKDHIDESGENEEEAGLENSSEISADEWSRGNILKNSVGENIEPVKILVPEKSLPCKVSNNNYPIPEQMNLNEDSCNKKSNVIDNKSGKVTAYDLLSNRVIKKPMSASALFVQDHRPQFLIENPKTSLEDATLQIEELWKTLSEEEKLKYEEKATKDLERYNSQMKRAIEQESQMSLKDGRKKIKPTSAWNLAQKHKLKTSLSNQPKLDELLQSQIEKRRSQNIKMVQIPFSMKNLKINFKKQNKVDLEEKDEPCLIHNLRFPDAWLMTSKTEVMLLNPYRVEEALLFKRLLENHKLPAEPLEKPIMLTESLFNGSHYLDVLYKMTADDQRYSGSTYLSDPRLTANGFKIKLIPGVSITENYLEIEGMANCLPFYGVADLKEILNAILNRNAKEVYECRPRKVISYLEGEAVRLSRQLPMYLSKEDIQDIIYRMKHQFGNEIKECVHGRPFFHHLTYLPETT
Sequence of MutLgamma (MLH1-MLH3) (P40692 whole entry, chain 1 of 2): as the sequence (P40692 whole entry, chain 1 of 2) above
Sequence of MutLgamma (MLH1-MLH3) (Q9UHC1 whole entry, chain 2 of 2): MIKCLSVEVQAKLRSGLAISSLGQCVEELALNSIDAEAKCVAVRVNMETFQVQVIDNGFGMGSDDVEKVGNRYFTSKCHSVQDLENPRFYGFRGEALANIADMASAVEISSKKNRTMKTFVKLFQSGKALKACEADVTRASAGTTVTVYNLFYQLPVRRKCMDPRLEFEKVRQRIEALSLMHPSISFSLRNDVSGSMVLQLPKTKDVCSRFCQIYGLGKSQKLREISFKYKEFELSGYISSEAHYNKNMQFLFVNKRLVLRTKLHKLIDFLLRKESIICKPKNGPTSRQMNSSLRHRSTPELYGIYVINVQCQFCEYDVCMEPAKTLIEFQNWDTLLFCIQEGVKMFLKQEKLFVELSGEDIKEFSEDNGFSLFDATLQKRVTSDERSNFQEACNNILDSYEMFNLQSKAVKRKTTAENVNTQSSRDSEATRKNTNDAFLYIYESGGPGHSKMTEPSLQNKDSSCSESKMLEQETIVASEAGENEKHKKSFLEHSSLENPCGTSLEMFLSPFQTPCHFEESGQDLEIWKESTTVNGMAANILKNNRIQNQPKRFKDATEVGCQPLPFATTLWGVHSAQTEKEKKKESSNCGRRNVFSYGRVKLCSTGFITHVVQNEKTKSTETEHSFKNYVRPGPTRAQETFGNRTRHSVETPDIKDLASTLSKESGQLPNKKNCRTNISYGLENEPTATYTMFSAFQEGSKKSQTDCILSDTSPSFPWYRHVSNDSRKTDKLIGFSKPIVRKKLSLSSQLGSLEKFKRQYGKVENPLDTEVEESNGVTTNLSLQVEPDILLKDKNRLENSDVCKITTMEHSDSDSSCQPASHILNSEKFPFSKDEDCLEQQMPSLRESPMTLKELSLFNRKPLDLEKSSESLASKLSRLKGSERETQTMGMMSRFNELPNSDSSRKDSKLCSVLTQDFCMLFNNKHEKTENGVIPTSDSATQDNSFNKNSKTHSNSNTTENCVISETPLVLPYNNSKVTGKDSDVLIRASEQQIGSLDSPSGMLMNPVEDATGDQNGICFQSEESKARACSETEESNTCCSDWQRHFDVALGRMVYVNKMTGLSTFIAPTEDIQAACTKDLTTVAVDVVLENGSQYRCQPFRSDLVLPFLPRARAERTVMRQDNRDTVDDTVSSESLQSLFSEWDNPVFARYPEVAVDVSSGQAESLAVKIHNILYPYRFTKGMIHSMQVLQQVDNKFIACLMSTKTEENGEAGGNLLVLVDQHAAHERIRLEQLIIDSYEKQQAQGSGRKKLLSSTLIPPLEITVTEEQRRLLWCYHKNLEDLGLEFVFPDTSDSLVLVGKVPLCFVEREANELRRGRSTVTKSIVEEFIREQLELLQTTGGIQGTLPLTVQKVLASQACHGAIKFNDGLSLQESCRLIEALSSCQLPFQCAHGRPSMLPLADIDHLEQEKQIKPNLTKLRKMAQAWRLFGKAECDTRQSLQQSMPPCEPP

B1: Holliday junction (PC1253/PC1254/PC1255/PC1256) (structured_DNA)
DNA 1: TGGGTCAACGTGGGCAAAGATGTCCTAGCAATGTAATCGTCTATGACGTT
DNA 2: TGCCGAATTCTACCAGTGCCAGTGATGGACATCTTTGCCCACGTTGACCC
DNA 3: GTCGGATCCTCTAGACAGCTCCATGATCACTGGCACTGGTAGAATTCGGC
DNA 4: CAACGTCACAGACGATTACATTGCTACATGGAGCTGTCTAGAGGATCCGA
binds: all assays above
